Laboratory results as given in patent US20230406935A1 (F STAR THERAPEUTICS, published 2023).

Tests used:
[1] = target: T1, Recombinant mouse PD-L1 with a C-terminal human IgG tag (R&D Systems, 1019-B7), biotinylated (mouse, UniProt Q9EP73 19-238); experiment: SPR BIAcore 3000, mouse PD-L1 Fc on streptavidin chip
T1 construct: also called mouse PD-L1 Fc

[2] = target: T2, Human CD80 expressed on HEK 293 cells (human, UniProt P33681 35-288); experiment: flow cytometry on HEK 293 cells
T2 construct: also called hCD80
T2 sequence: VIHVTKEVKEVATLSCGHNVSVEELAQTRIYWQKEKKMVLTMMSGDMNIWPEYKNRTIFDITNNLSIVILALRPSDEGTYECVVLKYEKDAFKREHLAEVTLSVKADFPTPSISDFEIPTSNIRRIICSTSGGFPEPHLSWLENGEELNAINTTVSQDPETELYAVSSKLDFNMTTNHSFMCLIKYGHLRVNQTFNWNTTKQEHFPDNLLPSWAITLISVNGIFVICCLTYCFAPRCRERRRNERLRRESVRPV

[3] = target: T3, Human PD-1 expressed on HEK 293 cells (human, UniProt Q15116 25-288); experiment: flow cytometry on HEK 293 cells
T3 construct: also called hPD-1

[4] = target: T4, Mouse CD80 expressed on HEK 293 cells (mouse, UniProt Q00609 38-306); experiment: flow cytometry on HEK 293 cells
T4 sequence: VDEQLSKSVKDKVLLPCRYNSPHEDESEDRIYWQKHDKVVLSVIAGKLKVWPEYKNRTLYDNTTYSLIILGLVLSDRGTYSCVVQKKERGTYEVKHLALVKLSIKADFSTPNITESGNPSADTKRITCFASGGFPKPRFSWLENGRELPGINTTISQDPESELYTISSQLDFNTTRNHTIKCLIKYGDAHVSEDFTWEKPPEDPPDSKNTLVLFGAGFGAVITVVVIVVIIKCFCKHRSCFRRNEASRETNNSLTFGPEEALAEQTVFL

[5] = target: Mouse PD-L1 expressed on HEK 293 cells (mouse, UniProt Q9EP73 19-290); experiment: flow cytometry on HEK 293 cells
Sequence of Mouse PD-L1 expressed on HEK 293 cells (Q9EP73 19-290 limits assumed): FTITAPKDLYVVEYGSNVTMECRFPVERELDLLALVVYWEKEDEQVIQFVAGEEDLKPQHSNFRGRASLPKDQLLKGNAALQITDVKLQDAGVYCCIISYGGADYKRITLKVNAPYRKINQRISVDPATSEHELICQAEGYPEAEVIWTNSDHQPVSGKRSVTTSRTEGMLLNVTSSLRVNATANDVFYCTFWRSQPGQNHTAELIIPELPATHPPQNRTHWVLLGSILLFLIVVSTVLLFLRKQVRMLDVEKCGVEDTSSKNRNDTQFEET

T1 sequence (Q9EP73 19-238 limits assumed): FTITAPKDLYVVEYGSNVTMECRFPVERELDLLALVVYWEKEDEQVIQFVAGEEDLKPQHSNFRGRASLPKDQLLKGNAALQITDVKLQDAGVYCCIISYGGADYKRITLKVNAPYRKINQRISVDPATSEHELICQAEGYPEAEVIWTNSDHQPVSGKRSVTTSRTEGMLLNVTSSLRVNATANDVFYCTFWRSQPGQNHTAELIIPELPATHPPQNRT
T3 sequence (Q15116 25-288 limits assumed): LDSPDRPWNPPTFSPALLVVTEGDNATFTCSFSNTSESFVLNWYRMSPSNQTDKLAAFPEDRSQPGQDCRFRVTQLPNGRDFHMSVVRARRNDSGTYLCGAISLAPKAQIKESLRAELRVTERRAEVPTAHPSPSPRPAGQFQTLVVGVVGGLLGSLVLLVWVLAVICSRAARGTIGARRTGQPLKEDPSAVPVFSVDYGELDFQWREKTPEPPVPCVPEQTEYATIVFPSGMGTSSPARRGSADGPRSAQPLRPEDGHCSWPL

B1: Fcab FS17-33 (Example 1, soluble Fcab with truncated hinge) (designed binder)
chain: TCPPCPAPELLGGPSVFLFPPKPKDTLMISRTPEVTCVVVDVSHEDPEVKFNWYVDGVEVHNAKTKPREEQYNSTYRVVSVLTVLHQDWLNGKEYKCKVSNKALPAPIEKTISKAKGQPREPQVYTLPPSRDEQSGYWVSLTCLVKGFYPSDIAVEWESNGQPENNYKTTPPVLDSDGSFFLYSKLTVSNWRWQMGDFSCSVMHEALHNHYTQKSLSLSPGK
B1: no binding [1]; no binding (tested: 1 µM) [2]; no binding (tested: 1 µM) [3]. B1: no binding (tested: 1 µM) [4]; no binding (tested: 1 µM) [5].
